Experimental data published in article PMC5778702.

Molecular target: pCMV-HA-H (HA-H), hemagglutinin (H) protein of Peste des petits ruminants virus with HA tag (Peste des petits ruminants virus)
Test: SPR; […]; Biacore 3000, 25 °C, HBS-EP (10 mM HEPES pH 7.4, 150 mM NaCl, 3 mM EDTA, 0.005% P20); […]

**Q.** For “pCMV-HA-HRB (HA-HRB), heptad repeat region B of the PPRV F protein with HA tag (domain or fragment)”, which Kd is on record?
**A.** The Kd was 260 nM.

**Q.** What about the koff of the same substance?
**A.** The koff was 0.00299 s⁻¹.

**Q.** What about the kon of the same substance?
**A.** The kon was 11500 M⁻¹ s⁻¹.

**Q.** What does the source list for “pCMV-HA-HRA (HA-HRA), heptad repeat region A of the PPRV F protein with HA tag (domain or fragment)”?
**A.** Kd: 108000 nM; koff: 0.00414 s⁻¹; kon: 38.2 M⁻¹ s⁻¹

**Q.** What does the source list for “pCMV-HA-F (HA-F), fusion (F) protein of Peste des petits ruminants virus with HA tag (natural protein)”?
**A.** Kd: 19.1 nM; koff: 0.000937 s⁻¹; kon: 49100 M⁻¹ s⁻¹
